# Assay results reported in patent US20200165324A1.
# What was measured:
# [1] = target: BG505 D474A
# [2] = target: BG505 Env on BG505 pseudovirus (HIV isolate BG505)
# [3] = target: BG505 G471A
# [4] = target: BG505 K121A
# [5] = target: BG505 K282A
# [6] = target: BG505 L179A
# [7] = target: BG505 L369A
# [8] = target: BG505 N262A
# [9] = target: BG505 N276A
# [10] = target: BG505 N279A
# [11] = target: BG505 N332T
# [12] = target: BG505 N363A
# [13] = target: BG505 R476A
# [14] = target: BG505 S364A
# [15] = target: BG505 S365A
# [16] = target: BG505 T372A
# [17] = target: BG505 T373A
# [18] = target: JR-CSF D279A
# [19] = target: JR-CSF D474A
# [20] = target: JR-CSF Env on JR-CSF pseudovirus
# [21] = target: JR-CSF G471A
# [22] = target: JR-CSF K207A
# [23] = target: JR-CSF K282A
# [24] = target: JR-CSF M373A
# [25] = target: JR-CSF N276A
# [26] = target: JR-CSF N283A
# [27] = target: JR-CSF N362A
# [28] = target: JR-CSF P369A
# [29] = target: JR-CSF R476A
# [30] = target: JR-CSF S199A
# [31] = target: JR-CSF S365A
# [32] = target: JR-CSF T198A
# [33] = target: JR-CSF V372A
# [34] = target: gp120 (isolate 92BR020) (HIV-1 isolate 92BR020); experiment: ELISA on gp120 (isolate 92BR020), buffer pH 6
# [35] = target: gp120 (isolate 92BR020) (HIV-1 isolate 92BR020); experiment: ELISA on gp120 (isolate 92BR020), buffer pH 5.5
substance,measurement,setting,value
12A12 (antibody),"IC50, pseudovirus neutralization",[1],0.02 µg/mL
same,"IC50, pseudovirus neutralization",[2],0.02 µg/mL
same,"IC50, pseudovirus neutralization",[3],0.029 µg/mL
same,"IC50, pseudovirus neutralization",[4],0.053 µg/mL
same,"IC50, pseudovirus neutralization",[5],0.04 µg/mL
same,"IC50, pseudovirus neutralization",[6],0.056 µg/mL
same,"IC50, pseudovirus neutralization",[7],0.03 µg/mL
same,"IC50, pseudovirus neutralization",[8],0.017 µg/mL
same,"IC50, pseudovirus neutralization",[9],0.003 µg/mL
same,"IC50, pseudovirus neutralization",[10],0.058 µg/mL
same,"IC50, pseudovirus neutralization",[11],0.031 µg/mL
same,"IC50, pseudovirus neutralization",[12],0.038 µg/mL
same,"IC50, pseudovirus neutralization",[13],0.026 µg/mL
same,"IC50, pseudovirus neutralization",[14],0.032 µg/mL
same,"IC50, pseudovirus neutralization",[15],0.057 µg/mL
same,"IC50, pseudovirus neutralization",[16],0.037 µg/mL
same,"IC50, pseudovirus neutralization",[17],0.039 µg/mL
same,"IC50, pseudovirus neutralization",[18],> 50 µg/mL
same,"IC50, pseudovirus neutralization",[19],0.075 µg/mL
same,"IC50, pseudovirus neutralization",[20],0.219 µg/mL
same,"IC50, pseudovirus neutralization",[21],0.114 µg/mL
same,"IC50, pseudovirus neutralization",[22],0.383 µg/mL
same,"IC50, pseudovirus neutralization",[23],2.33 µg/mL
same,"IC50, pseudovirus neutralization",[24],0.134 µg/mL
same,"IC50, pseudovirus neutralization",[25],2.72 µg/mL
same,"IC50, pseudovirus neutralization",[26],0.219 µg/mL
same,"IC50, pseudovirus neutralization",[27],0.11 µg/mL
same,"IC50, pseudovirus neutralization",[28],0.205 µg/mL
same,"IC50, pseudovirus neutralization",[29],0.082 µg/mL
same,"IC50, pseudovirus neutralization",[30],0.032 µg/mL
same,"IC50, pseudovirus neutralization",[31],0.18 µg/mL
same,"IC50, pseudovirus neutralization",[32],0.622 µg/mL
same,"IC50, pseudovirus neutralization",[33],0.214 µg/mL
same,EC50 (read off the curve),[34],0.4 µg/mL
same,EC50 (read off the curve),[35],0.4 µg/mL
